Results: the supplement of paper PMC9170038

test system: K4 kissing-loop RNA reporter; assay: apparent KD of K4 kissing-loop reporter; higher = weaker reporter binding; conditions: Eterna round: R107; input ligand: arginine 13.2 mM
Method: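 RNA-MaP round R107: designed RNA switches with theophylline, tryptophan, arginine or FMN aptamers are transcribed on-chip within common flanks. They are titrated with a labelled K4 kissing-loop RNA reporter in RNA-MaP buffer (100 mM Tris pH 7.5, 80 mM KCl, 4 mM MgCl2), without ligand or with the indicated ligand. Median apparent KD per design.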
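Note: bound reporter read as fluorescence of individual clusters on recovered sequencing chips by microscopy, with normalized cluster intensities fitted with a binding model.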

First: UAGAGGAGACUCUAAUUCCUUAAGUCCGAAGGAGCGACCCAAUGGUCAGGUAGGUCGCGGACAAUCCUAGUGAUGUUAGGAUCUG [Arg A SS t5a]
Second: UAACGCCACUAAGAUACCAGACAUACAGAUCGGAUCUCCUAAAGAGAGUGAUGUUCUCUAGUCCCUUGGCAGCUUCUGGACUCCC [theeternabot_sameState_KL_Theo_B_9]
The “apparent KD of K4 kissing-loop reporter” value of the first is 2.6-fold lower: 136 nM for the first, 356 nM for the second.

“GGCACUUUUGCUUGGAACCGUCAAGCUCUUUAGGAUAUCUGGAAACAGAGAAGGAAAGACCUACAGAGUGAUGUUCUGCGUGCCU” and “UUAGGAGUGGAAGGAUAUCCUGGUGUGGGUGAUGUUAGUGAUGUUGAAAGUGCAGUGAUGUUGCGCGGAGAAGGUCCGGUGUUGA [BDazzled - #7 - Exc. FMN B]” are within 1.5-fold of each other in “apparent KD of K4 kissing-loop reporter” value: 133 nM for the first, 153 nM for the second.

First: UGAUACCAGACUGAUACCAGCAAGUGAUGUUUGUUGAUCUAAAGCAGUCAAAGACUGCCUUGCCCUUGGCAGCAGUCUGGUAUCU [TheoBX 27 #SwitchBubble #StaticStem]
Second: CCUAUCUGUUACGAUACCAGUCAAAGAUAUUUUAUCAAUGCCCUCACCGAGUGAUGUUCGGACCCUUGGCAGCGUCUGGGAUAGG [pnnbmullin]
The “apparent KD of K4 kissing-loop reporter” value of the first is 4.1-fold higher: 569 nM for the first, 138 nM for the second.

same assay, conditions: Eterna round: R107; input ligand: none

First: AGUGUUAGGUUAGAUACCAGCCGUCUAUGGAUAAUCCUCAGACCGCCAGUGAUGUUGGCAGGCCCUUGGCAGCUAACAGAACAGA [Reinonor]
Second: CGUAGUUGGGCGGCCGCCACUUGAAAAGCUUUGCCAAAGGCAGAGCUCUAGAGUGAUGUUCUGGCAAGGACCGGGUCCAACUACA [#03 K4 Tryptophan B Same State]
The “apparent KD of K4 kissing-loop reporter” value of the first is 3.6-fold lower: 240 nM for the first, 872 nM for the second.

Going from “CCAUGAGGAUAAGAUGAUAUCAUAACAGAAGGAGCGAGUGAUAACUCAGGUAGGUCGCUGAAUUUAUCGAGUGAUGUUCGAUGAA [Same State Arginine A GF11]” to “UCCUGCAAUCGCCCACGAAAGUGGAUUGAUACCAGAGUCGAAAGACUCCCUUGGCAGCGAGUGAUGUUCGAAGCAGGUAAAUAAA”, the “apparent KD of K4 kissing-loop reporter” value rises from 193 nM to 562 nM (2.9-fold).

“AACCACUCGUUACAUCACUAUCGAGUGGAACGAGGACCGGUACGGCCGCCACUCGGUAACAAGCAGUGAUGUUGCUUGUAAGAAU [KL-SSTryp-A (BrourdMod)2 #dotplot2 strengthened]” and “AGCAGUGAUGUUGCUCAAUUUACAGGUGAUACCAGAGGUCAGUCUCUCCCUUGGCAGCACUUCAUACGAUGAUGUUUUAUCGGCC [theeternabot_sameState_KL_Theo_A_50]” are within 1.5-fold of each other in “apparent KD of K4 kissing-loop reporter” value: 307 nM for the first, 370 nM for the second.

Compared with “AUGGCACGACUUGCCCACAAUGUCUAUGCCCGAGGACCGGUACGGCCGCCACUCGGAUGCCGUGUCUUAUUAGUGAUGUUGAUAC [theeternabot_sameState_KL_Trp_A_4]”, “CGGAUGUAGUGAUGUUAUAUUAGAUGUAGACGAGGACCGGUACGGCCGCCACUCGUGAUGGCUGCUAGCACGUUUCGAUGUUUGC [ExTryptoA.Cq]” is 1.5-fold higher in “apparent KD of K4 kissing-loop reporter” value: 411 nM for the first, 624 nM for the second.

Compared with “UUACGGUCCUCGGCCGCCACUCAUAGUGAUGUUAUGCUGCCUGAAGGCACCGGACCUGGAUAUCAGAGGACCGGGAGGCCAUUCG [theeternabot_exclusion_KL_Trp_B_6]”, “AUUAAUUUCAGAGGAUAUCGUAUUUAUAUUAUAUCUUUCCAUAUUUGCAGUGAUGUUGCAUUAAUUCGAGAAGGCUGAUUUAUAA [JR_Nu_ExcFMNB_Sub024]” is 13-fold lower in “apparent KD of K4 kissing-loop reporter” value: 810 nM for the first, 60.4 nM for the second.

“GGGCCGCGCGCGGCCGCCACUCAGUGAUGUUGGGUGAGCUUUGCUGUGCGUGCUGUUUCGUGACGGAGGACCGGGCGCGCGGCCU [BDazzled 2]” and “AUGCGCGCGGCGGCCGCCACUCGCAUGAGAGUGAUGUUCUCGCCGGGCCCGGAAGGGCCCGGUGUGAGGACCGGGCCGGGCUGCG [#2 Same State - Tryptophan B Attempt #17 (HarryS)]” are within 1.5-fold of each other in “apparent KD of K4 kissing-loop reporter” value: 121 nM for the first, 175 nM for the second.

Compared with “CAAUGAGUAUAAGAUGAUAUCAUCACAGAAGGAGCGAGUGAUAACUCAGGUAGGUCGCUGAAUUUAUCGAGUGAUGUUCGAUAGA [whbob_SS_Arginine_A_sa118]”, “AGACUACUGAUAGGAUAUAACAUACUAGCUCGUAUACCAAAGGUAUACGAGCACCUUCUAGUGAUGUUAGAAGGGUCGGUAGUCA [Omei KL FMN B Exc B v3]” is 1.8-fold lower in “apparent KD of K4 kissing-loop reporter” value: 199 nM for the first, 108 nM for the second.

First: GCGUGCAAGUCAUGAUGCCCUAUCAGGACUAAGGAUAUAGCGUGACCUAGAAGGUAGCUAGUGAUGUUGGCUGACAUGCUACUGC [theeternabot_exclusion_KL_FMN_A_49]
Second: ACACGCAACUAUAGACCAGUGAUGUUGGAACGAGGACCGGUACGGCCGCCACUCGAGCGGACGAUCUACGCCUCUUAUGCUAACG [theeternabot_exclusion_KL_Trp_A_15]
The “apparent KD of K4 kissing-loop reporter” value of the first is 1.5-fold lower: 367 nM for the first, 552 nM for the second.

First: AUUCGCUCCACUGAUACCAGUCAUCGAGCAAGAUGCUAAGCCAGUGAUGUUGGCAUGAAUGACCCUUGGCAGCAGUACACUAAGG [Theo B SS t7]
Second: UGGCGAGUGAUGUUCGUUGUUGUAGUGUGUCGAGGACCGGUACGGCCGCCACUCGAGUUGGUUGUUGUUGUUGCUGUUGUUGCUG [#03 K4 Tryptophan A Same State]
The “apparent KD of K4 kissing-loop reporter” value of the first is 2.4-fold lower: 75.6 nM for the first, 181 nM for the second.

First: CGGCGCGGCGCGGCCGCCACUGCGCCUGGGUGCUCGCCGAGUGAUGUUCGUCGGCGGUUGGGUGGCAGGACCGGGUGCCGGCCCG [BDazzled - #18 SS Tryptophan B]
Second: UGUUUUUUUUUGAUGUUUGUUGUAAAAUGGCAGGAUAUCGUAGAGGCGAGAAGGGCUUUUAUGCGUUAUGAGUGAUGUUUGUAGG [vevvmullin]
The “apparent KD of K4 kissing-loop reporter” value of the first is 2.2-fold higher: 827 nM for the first, 381 nM for the second.

In the case of “AGGUCCGAGCCCGGAAGGGCUCGGACCUGUUAGGAUAUGACGUUAUUCAGAAGGGAUGGGUGGAGUGAUGUUCCACCCGAGAGGG [#2 Same State - FMN A Attempt #17 (HarryS)]”, the “apparent KD of K4 kissing-loop reporter” value is reported as 100 nM.
